Test results from patent publication US20220267415A1 (University of Texas, published 2022).

What was measured:
[1] = molecular target: T1, wild type RBD protein (generated as in Ku et al. 2021) (SARS-CoV-2, UniProt P0DTC2 319-541)
[2] = molecular target: B.1.526 Iota variant spike protein on recombinant USA-WA1/2020 virus (SARS-CoV-2); test: cell-based or functional assay
[3] = molecular target: T1, wild type RBD protein (generated as in …); test: binding KD on RBD protein, generally as Example 4
[4] = molecular target: T1, wild type RBD protein (generated as in …); test: BLI competition, RBD on sensor, antibody then ACE2; competitor ACE2

B1: anti-SARS-CoV2-14 IgM (full lambda light chain) (antibody)
heavy: EVQLQQSGPGLVKPSQTLSLTCAISGDSVSSNSAAWNWIRQSPSRGLEWLGRTYYRSKWYNDYAVSVKSRITINPDTSKNQFSLQLNSVTPEDTAVYYCAREEQQLVHDYYYYGMDVWGQGTMVTVSSGSASAPTLFPLVSCENSPSDTSSVAVGCLAQDFLPDSITFSWKYKNNSDISSTRGFPSVLRGGKYAATSQVLLPSKDVMQGTDEHVVCKVQHPNGNKEKNVPLPVIAELPPKVSVFVPPRDGFFGNPRKSKLICQATGFSPRQIQVSWLREGKQVGSGVTTDQVQAEAKESGPTTYKVTSTLTIKESDWLSQSMFTCRVDHRGLTFQQNASSMCVPDQDTAIRVFAIPPSFASIFLTKSTKLTCLVTDLTTYDSVTISWTRQNGEAVKTHTNISESHPNATFSAVGEASICEDDWNSGERFTCTVTHTDLPSPLKQTISRPKGVALHRPDVYLLPPAREQLNLRESATITCLVTGFSPADVFVQWMQRGQPLSPEKYVTSAPMPEPQAPGRYFAHSILTVSEEEWNTGETYTCVVAHEALPNRVTERTVDKSTGKPTLYNVSLVMSDTAGTCY
light: QAVVTQPASVSGSPGQSITISCTGTSSDIGAYNYISWYQQHPGKAPKLIIYEVSNRPSGISYRFSGSKSGNTASLTISGLQAEDEANYYCSSYAGSISFGGGTKVTVLGQPKAAPSVTLFPPSSEELQANKATLVCLISDFYPGAVTVAWKADSSPVKAGVETTTPSKQSNNKYAASSYLSLTPEQWKSHRSYSCQVTHEGSTVEKTVAPTECS
chain: not shown
[1]
  EC50 (read off the curve): ~0.9 nM
[2]
  Fold-Increase in potency of IgM over IgG: 5300 fold
  Neutralization EC50 (PRNT): 0.032 µg/mL
[3]
  Kd: < 0.001 nM
[4]
  EC50: 0.86 nM

B2: anti-SARS-CoV2-14 IgG (full lambda light chain) (antibody, V domains shown)
VH: EVQLQQSGPGLVKPSQTLSLTCAISGDSVSSNSAAWNWIRQSPSRGLEWLGRTYYRSKWYNDYAVSVKSRITINPDTSKNQFSLQLNSVTPEDTAVYYCAREEQQLVHDYYYYGMDVWGQGTMVTVSS
VL: QAVVTQPASVSGSPGQSITISCTGTSSDIGAYNYISWYQQHPGKAPKLIIYEVSNRPSGISYRFSGSKSGNTASLTISGLQAEDEANYYCSSYAGSISFGGGTKVTVL
[2]
  Neutralization EC50 (PRNT): 170 µg/mL
